Reference: the nanobody polyreactivity screen of Harvey et al. (2022)

Assay: yeast display, Sf9 membrane polyspecificity reagent, FACS + sequencing; frameworks hold sequencing errors
Procedure, shortened: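 Polyreactivity labels are assigned by the sorting gate from which each nanobody was recovered. The gates were low and high (top ~1%), set on anti-HA fluorescence for expression and streptavidin fluorescence for reagent binding. Before sorting, galactose-induced (36–48 hours) yeast display cells were stained for 1 hour at 4 °C with 10% biotinylated, detergent-solubilized Sf9 membrane reagent.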

Sequence	polyreactivity (PSR sort gate)
QVQLVESGGGLVQAGGSLRLSCAASGNTLDAYTLGWDRQAPGKERELVAAISRGGTRTYYADSLKGRFTISRDNAKNTVYLQMKSLKPEDTAVYSCAAKVGYTHEYGRYDYWGQGTQVTVSS	high polyreactivity
QVQLVESGGGLVQAGGSLRLSCAASGNTFGKYAMGWYRHAPGKERELVAAISKSSGSTYYADSVKGRFTLSRDNAKNTVYLQMNSLKPEDTAVYYCAACWYSYRYSRLGFGSWGQGTQVTVSS	high polyreactivity
QVQLVESGGGLVQAGGSLRLSCAASGFIISGNAMGWYRQAPGKERELVASISRSGGSTYYADSVKGRFTISRDNAKNTVYLQMNSLKPEDTAVYYCNARYYAIGQFNYWGQGTQVTVSS	low polyreactivity
QVQLVESGGGLVQAGGSLRLSCAASGSIFPQYAMGWYRQAPGKERELVAVISWSGGRTYYADSVKGRFTISRDNAKNTVYLQMNSLKPEDTAVYYCAAKYWYQRYAQSSYTRYYWGQGTQVTVSS	high polyreactivity
QVQLVESGGGLVQAGGSLRLSCAASGYTFVGYAMGWYRQAPGKERELVASISTGDSTYYADSVKGRFTISRDNAKNTVYLQMNSLKPEDTAVYYCAADSWYFRGMDYWGQGTQVTVSS	low polyreactivity
QVQLQGSGGGLVQAGGSLRLSCAASGNIFDADIMGWYRQAPGKESELVASITDGGSTNYADSVKGRFTISRDNAKNTVYLQMNSLKQVDTAVYYCAAIAYPDIPTYFDYDSDCFYWSQGTQVTVSS	high polyreactivity
QVQLVESGGGIVQAGGSLRLSCAASGRIFVGYAMVWYRQAPGKERELVAAISRGGSTNYADSVKGRFTISRDNAKNTVYLQMNSLKPEDTAVYYCAKTYRTRWWGNGGDFWGQGTQVTVSS	high polyreactivity
QVQLQESGGGLVQAGGTLRLSCAASGSFSADEDMGWYRQAQGKEREFVAGISVGGNTNYADSVKGRFTISRENAKNTVYLQMNILKPEDTAVYYCNARLLYLGSGFYYWGQGTQVTVSS	high polyreactivity
QVQLVESGGGLVQAGGSLRLSCAASGNTFYYNAMGWYRQAPGKEREFVATITESGTSTYYADSVKGRFTISRDNAKNTVYLQMNSLKPEDTAVYYCAAQYWYVGGIAWYDYWGQGTQVTVSS	low polyreactivity
QVQLVESGGGLVQAGGSLRVSCAASGFTFGPYDMGGSRQAPGKERELVAVIIGGDSTNYADSVKGRFTISRDNAKNTVYLQMNRLKPEDTAVYYCAADYIDRVGWMDYWGQGTQVTVSS	low polyreactivity
QVQLVESGGGLVQAGGSLRISCASSGRIFAFYVMGWYRQAPGKERELVAAISIRGTRTYYADSVKGRFTISRDNAKNTVYLQMNSLKPVDTAVYYCNAVTFPHYYDYWGQGPQVTVSS	high polyreactivity
IIQAGGSLRLSCAASGRTFSGYAMGWYRQAPGKERELIDDITSGGSTYYADSVKGRFTISRDNAKNTVYIQMNSLKPEDTAVYYCAAERHIRSFSSSRTYEFGYWGQGTQVTVSS	low polyreactivity
QVQLVESGGGLVQAGGSLRLSCAASGSIFVNNAMGWYRQAPGKERELVAAISSRGGSTYYADSVKGRFTISRDNAKNTVYLQMNSLKPEDTAVYYCAAEYDGPYYSFYPEQRYYWGQGTQVTVSS	low polyreactivity
QVQLVESGGGLVQAGGSLRLSCAASGSTYRWYAMGWYRQAPGKEREFVAAITWSGGRTYYADSVKGRFTISRDNAKNTVYLQMNSLKTEDTAVYYCNADDYGYSFNYWGQGTQVTVSS	high polyreactivity
QVHLVESGGGLVQAGGSLRLSCAASGRTFRLYAMGWYRQAPGKERELVAAITRGGRTNYADSVKGRFTISRDNAKNTVFLQMISLKPEDTAVYYCAARYVERHTDYYYWGQGTQVTVSS	low polyreactivity
QVQLVESGGGLVQAGGSLRLSCAASGRIFRDYVMGWYRQAPGKERELVAAISRGGSTYYADSVKGRFTISRDNAKNTVYLQMNSLKPEDTAVYYCAASWRSYSQLDYYWGQGTQVTVSS	high polyreactivity
QVQLVESGGGLVQAGGSLRLSCAASGRTLSYYARGWYRQAPGKERELVASIRRRTGSTYYAESVKGRFTISRDNAKNSVYLQMNSLTPEDTAVYYCAADLIYYGEYDYWGQGTQVTVSS	high polyreactivity
QVQLVESGGGLVQAGGSLRLSCAASGSTFVDNAMGWYRQAPGKERELVASITYRGGSTYYADSVKGRFTISRDNAKNTVYLQMNSLKPEDTAVYYCAKGHYFKYDYWGQGTQVTVSS	low polyreactivity
QVQLIESGGGLVQAGGSLRLSCAASGRTFYVNAMGWYRQAPGKERELVAAIRSGGSTSYADSVKGRFTISRDNAKNTVYLQMNSLKPEDTAVYYCAAKSGLDLYYGLGGYWGQGTQVTVSS	high polyreactivity
QVQLVESGGGFVQAGGSLRLSCAASGRIFLWNAMGWYRQAPGKERELVAGIRWSTGSTYYADSVKGRFTISRDNAKYTVSLQMYSLKRDDTAVYYCNARSLATGSKVPARGYWGQGTQVTVSS	high polyreactivity
QVQLVESGGGLVQAGGSLRLSCAASGRTFSSYVMGWYRQAPGKERELVASISRRGGSTYYADSVKGRFTISRDNAKNTVYLQMNSLKPEDTAVYYCNADLRGFGRGTDQYIFDYWGQGTQVTVSS	high polyreactivity
QVQLVKSGGGLVQAGGSLRLSCAASGTFRLYAMGWYRQAPGKERDFVAAITYGGVGTYYADSVKGRFTISRDNAKHTVYLQMNSLNPEDTAVSYCAAELYLTDTDVEYSYWGQGTQVTVSS	low polyreactivity

Sequence	polyreactivity (PSR sort gate)
QVQLVESGGGLVQAGGSLRLSCAASGSTFYIYAMGWYRQAPGKERELVAAITWSGGSTYYADSVKGRFTISRDNAKNTVYLQMNSQKPEDTAVYYCATKRARYSYDYWGQGTQVTVSS	high polyreactivity
QVQLVESGGGLVQAGGSLRLSCAASGSTFNYNAMGWYRQAPGKEREFVAAISRSGGSTSYADSVKGRFTLSRDNAKNTVYLQMNSLKPEDTAVYYCAAYYRKTGYDYWGQGTQVTVSS	high polyreactivity
QVQLVESGGGLVQAGGSLRLSCGASGSTFWWNAMGWYRQAPGKEREFVAAITARGTSTYYADSVKGRFTISRDNAKNTVYLQMNRLKPEDTAVYYCNTRLYGRYYSWYDYWGQGTQVTVSS	high polyreactivity
QVQLVESGGGLVQAGGSLRLSCASSGYTFTVYAKGWYRQAPGKERELVAAITWNGASTYYADSVKGRFTISRDNAKNTVYLQMNSLKPEDTAVYYCADPYYFYRDRYRLDYWGQGTQVTVSS	low polyreactivity
QVHLVESGGGFVQAGGSLRLICAASGITFGIYVMGWSRQAPGKERELVATISRSDDNSYYADSVKGRFTISRDNAKNTVYLQMNSLKPEDTAVYYCAADGVISAWYSSRDDYWGQGTQVTVSS	low polyreactivity
QVQLVESGGGLVQAGGSLRLSCAASGRIFAYNTMGWYRQAPGKEREMVAVITSGGSTNYADSVKGRFTISRDNAKITVYLQMNSLKPEDTAVYYCAKRPYGRSGGSRYDYWGHGTQVTVSS	high polyreactivity
QVQLVESAGGLVQAGGSLSLSCAASGILVYNAMGWYRQAPGKQRELVAAISARGGRTYYADSVKWRFTISRDNAKNTVYLQMNSLKTEDTAVSYCATLETTGVNYWGQGTQVTVSS	high polyreactivity
QVQLVESGGGLVQAGGSLRLSCAASGRTFPYNVMGWYRQAPRKERELVAAITYDGGNTYYADSVKGRFTISRDNAKNTVYLQMNSLKPEDTAVYYCARPLTYYDEFDSWGQGTQVTVSS	low polyreactivity
QGQLVESGGGLVQAGGSLRLTCAASGLTFWWYAMGWYRQAPGKERELVAAISSSGGSTYYADSVKGRFTISRDNAKNTVYLQMNSLKPEDTAVYYCAADGGFEYEYDYWGQGTQVTVTS	low polyreactivity
QVQLVESGGGLVQAGGSLRLSCAASGSTFDYYAMGWYRQAPGKERELVAAITWSGGTTYYADSVKGRFTISRDNAKNTVYLQMNSLKPEDTAVYYCAAESTLPIIDRDDYWGQGTQVTVSS	low polyreactivity
QVQLVESGGGLVQAGGSLRLSCAASGRTFTVNAIGWYRQAPGKERELVAAISGRSGRTSYADSVKGRFTISRDNAKNTVYLQMNSLKPEDTAVYYCNASGGYSTGSRYDYWGQGTQVTVSS	high polyreactivity
QAQLVESGGGLVQAGGSLRLSCAASGFTFSFNAMGWYRQAPGKERELVAAISSTGSSTYYADSVKGRFTISRDNAKNTVYLQMNSLKPEDTAVYYCAASRRGYRPRRYDYWGQGTQVTVSS	high polyreactivity
QVQLVESGGGLVQAGGSLRLSCAASGLTFAVYAMGWYRQAPGKVRELVAAITYSGSRTYYADSVKGRFTISRDNAKNTVYLQMNSLKPEVTAVYYCNALYRRDIKFYYWGQGTQVTVSS	high polyreactivity
QVQLVESGGGLVQAGGSLRLSFAASGSIFSYYPMGWYSQAPGKERELVAAISTSGGRTYYADSVKGRFTISRDNEKNTVYLQLYSLKPEDTPVYYCAAPVRWKNYDYWGQGTQVTVSS	high polyreactivity
QVQLVESGGGLVQAGGSLRLCCAASGRIFRYNAMGWYRQAPGKERELVAAITRSGGSTYYADSVKGRFTISRDNAKNTVYLQMNSLKPEDTAVYYCAKVQNGQWSTSRVPGDYQYNYWGQGTQVTVTS	high polyreactivity
QVQLVESGGGLVQAGGSLRLSCAASGSILAHYAMGWYRQAPGKERELVAGISSGGSTNYADSVKGRFTISRDNAKNTVYLQMNSLKPEDTAVYYCNADQDFLFIGYLFDYWGQGTQVTVSS	low polyreactivity
QVQLVESGGGLVQAGGSLRLSCAASGLTIQRNDMGWYRQAPGKEREFVATITSNAGSTYYADSVKGRFTISRDNAKNTVYLQMNSLKPEDTAVYYCARERWWGDGYWGQGTQVTVSS	high polyreactivity
QLQLVESGGGLVQAGGSLRLSCAASGSIFRFNAMGWYRQAPGKERELVAAISGDSGSTYYADSVKGRFTISRDTAKNTVYFQMNCLKPEDTAVYYCNARHGKIIFYLERYDYWGHGTQVTVSS	low polyreactivity
QVQLVESGGGLVQAGGSLRLSCAASGFIFSYNAMGWYRQAPGKERVLVAAISSRGGSTYYADSVMGRFTISRDNAKNTVYLQMNSLKPEDTGVSYCAVASRRVYTAPYDYWGQGTQVTVSS	high polyreactivity
QVHLVESGGGLVKAGGSLRLSCAASGITFGSYAMGWYRQAPGKERELVAAIDTSGDDTYYADSVKGRFTISRDNAKNTVYLQMNSLKPEDTAVYYCAADFPSAEVDYWGQGTQVTVSS	low polyreactivity
QFQLVESGGGLVQAGGSLRLSCAASGFTFPGYALGWSTQAPGKERELVAAINSSGGRTYYADSVKWRFTISRDNAKYTVYLQMNSLKPEDTEVYYCGATRWYIRARYNYWGHGTQVTVSS	high polyreactivity
